Assay results: patent publication US20240150457A1

Assays:
[1] = biological target: Cynomolgus monkey PAR-2 on cells (cynomolgus monkey); assay: cell-based or functional assay
[2] = biological target: Cynomolgus monkey PAR-2 on cells (cynomolgus monkey); assay: cell-based or functional assay; remark: listed apart in the source
[3] = biological target: Recombinant cynomolgus monkey PAR-2 (cynomolgus monkey); assay: SPR (Biacore), antibody captured on Protein A chip, recombinant PAR-2 injected

SLIGKV
SLIGKV EC80 mean, calcium flux [1]: 39000 nM
SLIGKV EC80 mean, β-arrestin [1]: 107000 nM

B1: P24E1102 (antibody, human IgG4 S228P, kappa, V domains shown)
VH: QVQLVQSGAEVKKPGSSVKVSCKASGFSLSSYAISWVRQAPGQGLEWMGVIWGNQNVYYAQKFQGRVTITADESTSTAYMELSSLRSEDTAVYYCARWKGYKDYPFDYWGQGTLVTVSS
VL: EIVLTQSPATLSLSPGERATLSCRASQNVYKWLDWYQQKPGQAPRLLIYNANTRATGIPARFSGSGSGRDFTLTISSLEPEDFAVYYCQQHHSGWTFGGGTKVEIKR
IC50 mean, calcium flux at SLIGKV EC80 (Nomad line) [2]: 3.98 nM
IC50 mean, β-arrestin at SLIGKV EC80 (Nomad line) [2]: 15.2 nM
Kd [3]: 4.45 nM
